The values below come from the supplement of paper PMC9170038.

The series has as its system MS2 coat protein. Description: apparent KD of MS2 coat protein; designed switch direction (-1 OFF switch, 1 ON switch): -1; higher = weaker reporter binding. In a few lines:
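Transcription of designed RNA switches on Illumina chips was done by stalled E. coli RNA polymerase. SNAP-549-labelled MS2 coat protein was then titrated in doubling steps from 0.7 or 1.5 nM to 3 µM, with steps of 0.8–1.5 h at the lowest and 10–20 min at the highest concentration. The per-design median over clusters of curve-fitted normalised fluorescence is reported as apparent KD.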

Setting [1] is: input ligand: microRNA oligo, concentration not stated.
Setting [2] is: Eterna round: R95, input ligand: microRNA oligo, concentration not stated.
Where [3] appears, read: Eterna round: R95, input ligand: FMN 200 uM.
The mark [4] stands for this setting: Eterna round: R95, input ligand: none.

As for “UCGCUCCGUGUAGGAUAUCGUUGUACCCUGCGGCGAGAAGGACAUGAGGAUCACCCAUGUAUGUUAUUAUCACGCGUGGCGCAA [Design 69] (Eterna round: R96, puzzle: Exclusion NG 1)”, the “apparent KD of MS2 coat protein” value is, setting by setting: (input ligand: FMN 200 uM) 15.9 nM; under setting [1], 13.4 nM; (input ligand: none) 18.3 nM.

With “UAUUAGCAAGUGAGGUCCCACAUGAGGAUCACCCAUGUGCUCGUCUUAUAAGGUACUGUGACGAGAGUCACGGUACC [Mat - Sensor, turn-off var - Eli Mod - D52] (Eterna round: R97, puzzle: Sensor, turn-off variant 1)”, the “apparent KD of MS2 coat protein” value reads like this: (input ligand: FMN 200 uM) 40.2 nM; (input ligand: none) 44.5 nM.

With “UCGCUCCGUGUAGGAUAUCGUUGUAUUCUGCGGCGAGAAGGACAUGAGGAUCACCCAUGUAUGUUAUUAUCACGCGUGGCGCAA [Design 67] (Eterna round: R96, puzzle: Exclusion NG 1)”, the “apparent KD of MS2 coat protein” value under setting [1] amounted to 13.9 nM.

On to “GUGCAGCGAGGAUAUCCAGACGGGUCCAGUACGUGUCUUGGACUUGAGGAUCACCCAAGUAGAAGGCGUCUCAG [salish99_ex2_r4_611] (Eterna round: R97, puzzle: Exclusion 2)”, for which the “apparent KD of MS2 coat protein” value (input ligand: FMN 200 uM) amounted to 50.9 nM and the “apparent KD of MS2 coat protein” value (input ligand: none) is 114 nM.

“UUAUUAUAUGUAGGAUAUGCAUAUUAUUAUUAUGCAGAAGGACAUGAGGAUCACCCAUGUAUAUUGUUGUUGUAUAUUAUAUAU [Title] (Eterna round: R96, puzzle: Exclusion NG 1)”: the “apparent KD of MS2 coat protein” value under setting [1] worked out at 20.9 nM.

On to “CCGCUGUGAGGAUAUUAGUAGUAGUCAGAAAAGACUAUUACUGAGAAGGCACAUGAGGAUCACCCAUGUUGCGG [Mat - Exclusion 4 - Eli Mod - D48] (Eterna round: R97, puzzle: Exclusion 4)”, for which the “apparent KD of MS2 coat protein” value runs as follows: (input ligand: FMN 200 uM) 33.9 nM; (input ligand: none) 38.2 nM.

Regarding “CAAACACUGGUCCAAGCACACAUGAGGAUCACCCAUGUCGCCACAUAGGCGCCGGGAAUUAAGCUUCCGUUCGUCUG [Eternabot (L2) Solution 14] (Eterna round: R97, puzzle: Sensor, turn-off variant 1)”, the “apparent KD of MS2 coat protein” value reads like this: (input ligand: FMN 200 uM) 113 nM; (input ligand: none) 150 nM.

On to “AGUUGGGCAGGAUAUACAUGAGGAUCACCCAUGUGAGAAAUACUAGUGAGGUCGAUUAGUAGAAGGGCCUGACA [Mat - Exclusion 3 - Eli Mod - D30] (Eterna round: R97, puzzle: Exclusion 3)”, for which the “apparent KD of MS2 coat protein” value was determined as 244 nM (input ligand: FMN 200 uM) and 31.2 nM (input ligand: none).

As to “GUAUAUAGUGUGAGGAUAUGCUGGUCCUUGGAUCAGCAGAAGGCACAUGAGGAUCACCCAUGUAGUUUAUUUUA [Mat - Exclusion 4 - JL Mod - D3] (puzzle: Brourd's mod of Exclusion 4)”, the “apparent KD of MS2 coat protein” value under setting [2] is 25.8 nM.

On to “ACGGGUAAGUAAGGAUAUCCAACAGGCUGAUUUCAGUCUGAACAUGAGGAUCACCCAUGUGGGUGGGAGAAGGUACUCUCCCGC [Atbienarza] (Eterna round: R96, puzzle: Exclusion NG 2)”, for which the “apparent KD of MS2 coat protein” value was 107 nM (input ligand: FMN 200 uM), 86.3 nM under setting [1] and 114 nM (input ligand: none).

Regarding “GUGGCACAUGAGGAUCACCCAUGUCAGGAUAUCGCGUGGUUUUUUUCGGCCGCGCGCGCGAGAAGGGACGUCUU (puzzle: Exclusion 1)”, the “apparent KD of MS2 coat protein” value under setting [2] came to 27.2 nM.

In the case of “GGUUAGGCAGGAUAUACCCACAGUGUCUGUAGAAUCGCAAGACAUGAGGAUCACCCAUGUAGAAGGGCCGACCG [Eternabot (L1) Solution 1] (Eterna round: R97, puzzle: Exclusion 2)”, the “apparent KD of MS2 coat protein” value (input ligand: FMN 200 uM) is 184 nM and the “apparent KD of MS2 coat protein” value (input ligand: none) was 273 nM.

For the sequence “CCUUAAAUUGUAAGGAUAUUAAAGCUGCUGAGUUAUAAGAAGGUACAUGAGGAUCACCCAUGUUCGGCAGGGUC [Qulexeri] (puzzle: Brourd's mod of Exclusion 4)”, the “apparent KD of MS2 coat protein” value under setting [2] worked out at 17.1 nM.

Turning to “GCGCCAUCGUGAGAUGGCGUAUAAACAUGAGGAUCACCCAUGUAGGAUAUCGAUUGCUUUGCAGUCGAGAAGGGCAUUAUAAGU [JL ENG3 3.75] (Eterna round: R96, puzzle: Exclusion NG 3)”, the “apparent KD of MS2 coat protein” value by setting is: (input ligand: FMN 200 uM) 29.2 nM; under setting [1], 19 nM; (input ligand: none) 28.4 nM.

On to “UUUAAACUUACAAUCUUCGCUGGCAUGCUUGUGCCAGCUACAUGAGGAUCACCCAUGUUUUUUGCUCGUCUUAUUCU [Usre] (puzzle: Sensor v3, turn-off variant 2)”, for which the “apparent KD of MS2 coat protein” value is, setting by setting: under setting [3], 23.5 nM; under setting [4], 25.1 nM.

For “UACAUGAGGAUCACCCAUGUUUUGUCGUGUAUGGUAUUUAUCUAGGAUAUCAAGUUGUUUAUUUAUGAGAAGGAGAAUAUUAAU [JMF's solution 27] (Eterna round: R96, puzzle: Exclusion NG 3)”, the “apparent KD of MS2 coat protein” value under setting [1] is 28.8 nM.

As for “UGCAGACGAGGAUAUAAACGAUAUAACAUGAGGAUCACCCAUGUACGAUCGAAUGAUCGUUUAGAAGGCGUCUGCA [E5/10-A1] (Eterna round: R97, puzzle: Exclusion 5)”, the “apparent KD of MS2 coat protein” value came to 16.6 nM (input ligand: FMN 200 uM) and 15.7 nM (input ligand: none).

As for “CUUGUGUGAGGAUAUGAAUUGCCUGGACAUACAGGCUCCUGUCAGAAGGCACAUGAGGAUCACCCAUGUGGGCA [Andiriso] (Eterna round: R97, puzzle: Exclusion 4)”, the “apparent KD of MS2 coat protein” value stood at 98.1 nM (input ligand: FMN 200 uM) and 411 nM (input ligand: none).

For the sequence “UUUAUAUAGUAAGGAUAUGUAUUAUUUUUGUCAACAGAAGGUACUGACAUGAGGAUCACCCAUGUUUUAGUGUGGGCAUGUAGU [JMF's solution 99] (Eterna round: R96, puzzle: Exclusion NG 1)”, the “apparent KD of MS2 coat protein” value under setting [1] was found to be 177 nM.

On to “ACUCCUCCUGUUAGGAUAUGCAUCGGGCUUCCGCAGCAGAAGGAACAUGAGGAUCACCCAUGUCAAAUAAAAUC (Eterna round: R97, puzzle: Brourd's mod of Exclusion 4)”, for which the “apparent KD of MS2 coat protein” value (input ligand: FMN 200 uM) amounted to 243 nM and the “apparent KD of MS2 coat protein” value (input ligand: none) came to 26.3 nM.

For the sequence “CCUUGUGUUGAGGAUAUGCGCCGGCUCGCUGGCGCAGAAGGCGGCACAUGAGGAUCACCCAUGUCAGUUCGCGU [salish99_ex6_r004_014] (Eterna round: R97, puzzle: Exclusion 6)”, the “apparent KD of MS2 coat protein” value (input ligand: FMN 200 uM) was 431 nM and the “apparent KD of MS2 coat protein” value (input ligand: none) amounted to 29.8 nM.

As for “AAGAAACGAGGAUAUACAAUUGAGUGAGAGAGGGAAGUGUGACAUGAGGAUCACCCAUGUAGAAGGCGUAAGAG [JR_Exclu2_Sub085] (puzzle: Exclusion 2)”, the “apparent KD of MS2 coat protein” value is, setting by setting: under setting [3], 124 nM; under setting [2], 79.5 nM; under setting [4], 73.9 nM.

For the sequence “GUUUUAUAUGAAGGAUAUACUUAACAUGAGGAUCACCCAUGUGGUGUUGUGAGUGAGUGAGUUUAGUAGAAGGUCAAUGAUUUU [JMF's solution 77] (Eterna round: R96, puzzle: Exclusion NG 2)”, the “apparent KD of MS2 coat protein” value reads like this: (input ligand: FMN 200 uM) 1660 nM; under setting [1], 396 nM; (input ligand: none) 473 nM.

“GCUCGUGGGCAAGGAUAUCCUACGCUGUUCUGGUUCGUGUCUGUCACAUGAGGAUCACCCAUGUGGGAGAAGGUGCACCAGGGU [Design 51] (Eterna round: R96, puzzle: Exclusion NG 2)”: the “apparent KD of MS2 coat protein” value (input ligand: FMN 200 uM) is 10.8 nM, the “apparent KD of MS2 coat protein” value under setting [1] amounted to 9.67 nM and the “apparent KD of MS2 coat protein” value (input ligand: none) stood at 14 nM.

Turning to “AAUAAACAUGAGGAUCACCCAUGUGAGGAUAUGCAAAUAAAUAAAUAAAUAAAUAAUAGUAGAAGGCGCAAUAA [Excls1-I] (puzzle: Exclusion 1)”, the “apparent KD of MS2 coat protein” value came out at 34 nM under setting [3], 52.6 nM under setting [2] and 63 nM under setting [4].

For “AGUAACCGUCACGAAAGUGAUGGUUACAUAAGCAUAUGUACAUGAGGAUCACCCAUGUCCUCAACUGCUCGUUUUAU [Sensor 3 - 56] (puzzle: Sensor v3, turn-off variant 2)”, the “apparent KD of MS2 coat protein” value by setting is: under setting [3], 292 nM; under setting [2], 612 nM; under setting [4], 349 nM.

“GUGUAGUAAGGAUAUACAUGAGGAUCACCCAUGUGAGUAAGAUAGAAUAAGAUAAAGUGUAGAAGGUAUAGUGU [Excluse me!!! 16 - Jieux - Exclusion 3] (puzzle: Exclusion 3)”: the “apparent KD of MS2 coat protein” value stood at 42.6 nM under setting [3], 42.8 nM under setting [2] and 48.9 nM under setting [4].

Take “AGCAUGCAGCAGGAUAUCGAUCCGCAGUAUGAUCGAGAAGGGCUGACAUGAGGAUCACCCAUGUGCGUCCUAGG [jl-ex6-4.42 ViennaUCT mod] (Eterna round: R97, puzzle: Exclusion 6)”: the “apparent KD of MS2 coat protein” value runs as follows: (input ligand: FMN 200 uM) 295 nM; (input ligand: none) 66.3 nM.

With “AAUAAUCGAGGAUAUACUAAAAUAUGAAUAAAAUAAAUAAAACAUGAGGAUCACCCAUGUAGAAGGCGAAAUAA [JMF's Not so obvious solution 1] (puzzle: Exclusion 2)”, the “apparent KD of MS2 coat protein” value by setting is: under setting [3], 20.8 nM; under setting [2], 24.1 nM; under setting [4], 29.5 nM.

Take “UUGUUAUAUGUAGGAUAUGCAUAUUAUUAUUAUGCAGAAGGACAUGAGGAUCACCCAUGUGUAUUGUUAUUAUAUAUUAUAUAU [Title] (Eterna round: R96, puzzle: Exclusion NG 1)”: the “apparent KD of MS2 coat protein” value under setting [1] was 16.5 nM.

“AAUUAUUAUCGAGGAUAUCGUAUUGAAAUAAUAUGAGAAGGCGGGAUAAACAUGAGGAUCACCCAUGUGAGCCUGAUGCUUGUG [Ex NG1 #38] (Eterna round: R96, puzzle: Exclusion NG 1)”: the “apparent KD of MS2 coat protein” value under setting [1] came to 14.9 nM.

As for “AAAUGCGAGCGAGGAUAUCAGAAAGGAAGUGUAUGAGAAGGCGCACCGCGGGUAUCCGGACAUGAGGAUCACCCAUGUAGGCUC [PowerStrip EXNG 1.28] (Eterna round: R96, puzzle: Exclusion NG 1)”, the “apparent KD of MS2 coat protein” value turned out to be 23.2 nM (input ligand: FMN 200 uM), 17.8 nM under setting [1] and 29.5 nM (input ligand: none).
